The assay deals with α-synuclein (recombinant, monomeric fraction) (UniProt P37840 1-140). The assay can be described thus: fluorescence anisotropy; α-syn monomers titrated into the Trp-containing peptide. Here is the method:
The solution was immediately mixed with α-syn monomer stock solution to varying final concentrations. The peptide polarization measurements were carried out using an ISS K2 fluorometer. The solutions were excited at 280 nm and emission was monitored at 350 nm. For each single point, at least five measurements were collected and their average values were used for the calculation. All experiments were performed using ultra pure water.
(In general: In fluorescence polarisation assays a small probe gives low polarisation when free and higher when bound to something large.)

A word on the Kd: it is a measure of binding affinity in units of concentration.

B1: β-syn 36 in which tyrosine was substituted with tryptophan (peptide)
peptide: GVLWVGSKTR
notes: also called β-syn 36 containing Tryptophan instead of Tyrosine
For the molecule B1, the Kd is around 1000 nM.

Values taken from patent US20160168212A1 (RAMOT AT TEL AVIV UNIVERSITY, published 2016).
